The source of these data is patent US20240343823A1 (Ablynx, published 2024).

Positions count from the first letter of the chain named. Where two headings read alike, the source gives them in different places.

Holding throughout (assay): cell-based or functional assay
Test [1] has as its target T1, human GPC3 on tumor cell lines (HepG2, Huh-7, NCI-H661, MKN-45, NCI-H23, BxPC-3, NCI-H292) (human, UniProt P51654 25-554).
Test [2] has as its target T1, human GPC3 on tumor cell lines (HepG2, …). This is another data set of the same source.
Test [3] shares this target. This is another data set of the same source.
For test [4] the target is unchanged. The source holds these as a separate data set.

B1: A022600425 (other)
chain: DVQLVESGGGVVQPGGSLRLSCVASGYVHKINFYGWYRQAPGKEREKVAHISIGDQTDYADSAKGRFTISRDESKNTVYLQMNSLRPEDTAAYYCRALSRIWPYDYWGQGTLVTVSSGGGGSEVQLVESGGGVVQPGGSLRLSCAASGSIFRSVFSSSTMEWYRQAPGKKRELVARIAPGEGTYYGALYADSVKGRFTISRDNAKNTVYLQMNSLRPEDTALYYCASGVAWGQGTLVTVSSGGGGSGGGGSGGGGSGGGGSEVQLVESGGGVVQPGGSLRLSCAASGFTFSSFAMTWVRRPPGKGLEWVATITNAGVTSYADSVKGRFTISRDNAKNTLYLQMNSLRPEDTALYICANARRTGPRAPTDIGSYRGQGTLVTVSSGGGGSGGGSEVQLVESGGGVVQPGGSLRLSCAASGFTFRSFGMSWVRQAPGKGPEWVSSISGSGSDTLYADSVKGRFTISRDNSKNTLYLQMNSLRPEDTALYYCTIGGSLSRSSQGTLVTVSSA
For the molecule B1, in test [1], the “IC50 (M) BxPC-3, xCELLigence human TDC assay” value is greater than 1e-07 M; the “IC50 (M) HepG2, xCELLigence human TDC assay” value (shortened to “IC50 (M) HepG2”) was determined as 1.11e-10 M; the “IC50 (M) Huh-7, xCELLigence human TDC assay” value was found to be 1.58e-10 M; the “IC50 (M) NCI-H23, xCELLigence human TDC assay” value (“IC50 (M) NCI-H23” below) is greater than 1e-07 M. The “IC50 (M) NCI-H661, xCELLigence human TDC assay” value (from here on “IC50 (M) NCI-H661”) in test [1] was 2.59e-10 M.

B2: A022600426 (other)
chain: B1 chain with A315K
Regarding B2, in test [1], the “IC50 (M) BxPC-3, xCELLigence human TDC assay” value is greater than 1e-07 M; the “IC50 (M) HepG2” value came to 1.25e-10 M; the “IC50 (M) Huh-7, xCELLigence human TDC assay” value came to 1.09e-10 M; the “IC50 (M) NCI-H23” value was greater than 1e-07 M. Also, the “IC50 (M) NCI-H661” value in test [1] is 2.64e-10 M.

B3: A022600412 (other)
chain: DVQLVESGGGVVQPGGSLRLSCVASGYVHKINFYGWYRQAPGKEREKVAHISIGDQTDYADSAKGRFTISRDESKNTVYLQMNSLRPEDTAAYYCRALSRIWPYDYWGQGTLVTVSSGGGGSEVQLVESGGGVVQPGGSLRLSCAASGFTFSSFAMTWVRRPPGKGLEWVATITNAGVTSYADSVKGRFTISRDNAKNTLYLQMNSLRPEDTALYICANARRTGPRAPTDIGSYRGQGTLVTVSSGGGGSGGGGSGGGGSGGGGSEVQLVESGGGVVQPGGSLRLSCAASGFTFRSFGMSWVRQAPGKGPEWVSSISGSGSDTLYADSVKGRFTISRDNSKNTLYLQMNSLRPEDTALYYCTIGGSLSRSSQGTLVTVSSA
With B3, in test [1], the “IC50 (M) BxPC-3, xCELLigence human TDC assay” value is greater than 1e-07 M; the “IC50 (M) HepG2” value came out at 3.82e-10 M; the “IC50 (M) Huh-7, xCELLigence human TDC assay” value amounted to 1.53e-09 M; the “IC50 (M) NCI-H661” value was determined as 6.18e-10 M.

B4: A022600427 (other)
chain: DVQLVESGGGVVQPGGSLRLSCVASGYVHKINFYGWYRQAPGKEREKVAHISIGDQTDYADSAKGRFTISRDESKNTVYLQMNSLRPEDTAAYYCRALSRIWPYDYWGQGTLVTVSSGGGGSEVQLVESGGGVVQPGGSLRLSCAASGFTFSSFAMTWVRRPPGKGLEWVATITNAGVTSYADSVKGRFTISRDNAKNTLYLQMNSLRPEDTALYICANARRTGPRAPTDIGSYRGQGTLVTVSSGGGGSGGGSEVQLVESGGGVVQPGGSLRLSCAASGSIFRSVFSSSTMEWYRQAPGKKRELVARIAPGEGTYYGALYADSVKGRFTISRDNAKNTVYLQMNSLRPEDTALYYCASGVAWGQGTLVTVSSGGGGSGGGSEVQLVESGGGVVQPGGSLRLSCAASGFTFRSFGMSWVRQAPGKGPEWVSSISGSGSDTLYADSVKGRFTISRDNSKNTLYLQMNSLRPEDTALYYCTIGGSLSRSSQGTLVTVSSA
Regarding B4, in test [1], the “IC50 (M) BxPC-3, xCELLigence human TDC assay” value is greater than 1e-07 M; the “IC50 (M) HepG2” value was determined as 1.03e-10 M; the “IC50 (M) Huh-7, xCELLigence human TDC assay” value stood at 1.37e-10 M; the “IC50 (M) NCI-H23” value was greater than 1e-07 M. Besides, the “IC50 (M) NCI-H661” value in test [1] came out at 1e-10 M.

B5: A022600169 (other)
chain: DVQLVESGGGLVQPGGSLRLSCVASGFTFSSFAMTWVRRPPGKGLEWVATITNGGVTSYRDSVKGRFTISRDNAKNTLYLEMTSLNPEDTAVYICANARRTGPRAPTDIGSYRGQGTLVTVSSGGGGSEVQLVESGGGVVQPGGSLRLSCVASGYVHKINFYGWYRQAPGKEREKVAHISIGDQTDYADSAKGRFTISRDESKNTVYLQMNSLRPEDTAAYYCRALSRIWPYDYWGQGTLVTVSSGGGGSEVQLVESGGGLVQPGGSLRLSCVASGSIFRSVFSSSTMEWYRQPPGKKRELVARIAPGDGTNYGALYADSVKGRFTISRDDAKKTVDLQMNSLKPEDTGVYFCASGVAWGQGTLVTVSSGGGGSGGGGSGGGGSGGGGSGGGGSGGGGSGGGGSEVQLVESGGGVVQPGGSLRLSCAASGFTFRSFGMSWVRQAPGKGPEWVSSISGSGSDTLYADSVKGRFTISRDNSKNTLYLQMNSLRPEDTALYYCTIGGSLSRSSQGTLVTVSSA
Take B5: in test [2], the “HepG2 on Incucyte IC50” value was 0.641 nM, the “HepG2 on Incucyte Max % killing” value is 81%, the “Huh7 on xCELLigence IC50” value is 1.02 nM and the “Huh7 on xCELLigence Max % killing” value is 61%.

B6: A022600179 (other)
chain: DVQLVESGGGVVQPGGSLRLSCVASGYVHKINFYGWYRQAPGKEREKVAHISIGDQTDYADSAKGRFTISRDESKNTVYLQMNSLRPEDTAAYYCRALSRIWPYDYWGQGTLVTVSSGGGGSEVQLVESGGGLVQPGGSLRLSCVASGFTFSSFAMTWVRRPPGKGLEWVATITNGGVTSYRDSVKGRFTISRDNAKNTLYLEMTSLNPEDTAVYICANARRTGPRAPTDIGSYRGQGTLVTVSSGGGGSGGGSEVQLVESGGGVVQPGGSLRLSCAASGFTFRSFGMSWVRQAPGKGPEWVSSISGSGSDTLYADSVKGRFTISRDNSKNTLYLQMNSLRPEDTALYYCTIGGSLSRSSQGTLVTVSSA
Turning to B6, in test [3], the “HepG2 on Incucyte IC50” value is 2.92 nM, the “HepG2 on Incucyte Max % killing” value stood at 76%, the “Huh7 on xCELLigence IC50” value was found to be 6.13 nM and the “Huh7 on xCELLigence Max % killing” value stood at 66%.

B7: A022600172 (other)
chain: DVQLVESGGGVVQPGGSLRLSCVASGYVHKINFYGWYRQAPGKEREKVAHISIGDQTDYADSAKGRFTISRDESKNTVYLQMNSLRPEDTAAYYCRALSRIWPYDYWGQGTLVTVSSGGGGSEVQLVESGGGLVQPGGSLRLSCVASGFTFSSFAMTWVRRPPGKGLEWVATITNGGVTSYRDSVKGRFTISRDNAKNTLYLEMTSLNPEDTAVYICANARRTGPRAPTDIGSYRGQGTLVTVSSGGGGSGGGSEVQLVESGGGVVQPGGSLRLSCAASGFTFRSFGMSWVRQAPGKGPEWVSSISGSGSDTLYADSVKGRFTISRDNSKNTLYLQMNSLRPEDTALYYCTIGGSLSRSSQGTLVTVSSGGGGSGGGSEVQLVESGGGLVQPGGSLRLSCVASGSIFRSVFSSSTMEWYRQPPGKKRELVARIAPGDGTNYGALYADSVKGRFTISRDDAKKTVDLQMNSLKPEDTGVYFCASGVAWGQGTLVTVSSA
As for B7, in test [2], the “HepG2 on Incucyte IC50” value is 0.601 nM, the “HepG2 on Incucyte Max % killing” value was determined as 81%, the “Huh7 on xCELLigence IC50” value worked out at 0.067 nM and the “Huh7 on xCELLigence Max % killing” value turned out to be 90%.

B8: A022600175 (other)
chain: DVQLVESGGGVVQPGGSLRLSCVASGYVHKINFYGWYRQAPGKEREKVAHISIGDQTDYADSAKGRFTISRDESKNTVYLQMNSLRPEDTAAYYCRALSRIWPYDYWGQGTLVTVSSGGGGSEVQLVESGGGLVQPGGSLRLSCVASGFTFSSFAMTWVRRPPGKGLEWVATITNGGVTSYRDSVKGRFTISRDNAKNTLYLEMTSLNPEDTAVYICANARRTGPRAPTDIGSYRGQGTLVTVSSGGGGSGGGSEVQLVESGGGLVQPGGSLRLSCVASGSIFRSVFSSSTMEWYRQPPGKKRELVARIAPGDGTNYGALYADSVKGRFTISRDDAKKTVDLQMNSLKPEDTGVYFCASGVAWGQGTLVTVSSGGGGSGGGGSGGGGSGGGGSGGGGSGGGGSGGGGSEVQLVESGGGVVQPGGSLRLSCAASGFTFRSFGMSWVRQAPGKGPEWVSSISGSGSDTLYADSVKGRFTISRDNSKNTLYLQMNSLRPEDTALYYCTIGGSLSRSSQGTLVTVSSA
Consider B8, for which, in test [3], the “HepG2 on Incucyte IC50” value amounted to 0.527 nM, the “HepG2 on Incucyte Max % killing” value worked out at 96%, the “Huh7 on xCELLigence IC50” value stood at 0.0586 nM and the “Huh7 on xCELLigence Max % killing” value was found to be 99%. In test [4], the “HepG2 on Incucyte IC50” value came to 0.527 nM, the “HepG2 on Incucyte Max % killing” value amounted to 96%, the “Huh7 on xCELLigence IC50” value came out at 0.0586 nM and the “Huh7 on xCELLigence Max % killing” value worked out at 99%.

B9: A022600170 (other)
chain: DVQLVESGGGVVQPGGSLRLSCVASGYVHKINFYGWYRQAPGKEREKVAHISIGDQTDYADSAKGRFTISRDESKNTVYLQMNSLRPEDTAAYYCRALSRIWPYDYWGQGTLVTVSSGGGGSEVQLVESGGGLVQPGGSLRLSCVASGFTFSSFAMTWVRRPPGKGLEWVATITNGGVTSYRDSVKGRFTISRDNAKNTLYLEMTSLNPEDTAVYICANARRTGPRAPTDIGSYRGQGTLVTVSSGGGGSGGGGSGGGGSGGGGSGGGGSGGGGSGGGGSEVQLVESGGGLVQPGGSLRLSCVASGSIFRSVFSSSTMEWYRQPPGKKRELVARIAPGDGTNYGALYADSVKGRFTISRDDAKKTVDLQMNSLKPEDTGVYFCASGVAWGQGTLVTVSSGGGGSGGGSEVQLVESGGGVVQPGGSLRLSCAASGFTFRSFGMSWVRQAPGKGPEWVSSISGSGSDTLYADSVKGRFTISRDNSKNTLYLQMNSLRPEDTALYYCTIGGSLSRSSQGTLVTVSSA
Consider B9, for which, in test [3], the “HepG2 on Incucyte IC50” value stood at 0.319 nM, the “HepG2 on Incucyte Max % killing” value came out at 97%, the “Huh7 on xCELLigence IC50” value stood at 0.186 nM and the “Huh7 on xCELLigence Max % killing” value worked out at 103%.
